Results: US20190119358A1
*1 amine or outer side, *2 acyl side, *3 side chain or, on linkers, in order; H or OH if unused. Bridges are numbered along the chain shown (N, C = ends). [ ]: non-standard residue; d: D form. ξ: configuration not given here. DAPTZAC2 = (S)-3-(4-(2-acrylamidoethyl)-1H-1,2,3-triazol-1-yl)-2-aminopropanoic acid, C=CC(=O)NCCc1cn(C[C@H](N[*:1])C(=O)[*:2])nn1; m‑xylylene = m-xylylene thioether bridge between Cys; Trp(7-aza) = N[C@@H](Cc1c[nH]c2ncccc12)C(=O)O; NMePhe(4-F) = CN[C@@H](Cc1ccc(F)cc1)C(=O)O; mXylylene = c1cc(C[*:1])cc(C[*:2])c1; dPhg = N[C@@H](C(=O)O)c1ccccc1; Phg = N[C@H](C(=O)O)c1ccccc1; Tle = CC(C)(C)[C@H](N)C(=O)O; ξPhg = NC(C(=O)O)c1ccccc1; NMeA = CN[C@@H](C)C(=O)O; Nva = CCC[C@H](N)C(=O)O; Sar = CNCC(=O)O

B1: R4152 (peptide)
peptide: Ac-[Nva]CA[Tle]KH[NMeA][Phg][Trp(7-aza)]Y[NMePhe(4-F)][Sar]C-NH2
modifications: linker 2-13 via mXylylene
SMILES: CCC[C@H](NC(C)=O)C(=O)N[C@H]1CSCc2cccc(c2)CSC[C@@H](C(N)=O)NC(=O)CN(C)C(=O)[C@H](Cc2ccc(F)cc2)N(C)C(=O)[C@H](Cc2ccc(O)cc2)NC(=O)[C@H](Cc2c[nH]c3ncccc23)NC(=O)[C@H](c2ccccc2)NC(=O)[C@H](C)N(C)C(=O)[C@H](Cc2c[nH]cn2)NC(=O)[C@H](CCCCN)NC(=O)[C@H](C(C)(C)C)NC(=O)[C@H](C)NC1=O
B2: R4153 (peptide)
peptide: Ac-[Nva]CY[Tle]KA[NMeA][dPhg][Trp(7-aza)]Y[NMePhe(4-F)][Sar]C-NH2
modifications: linker 2-13 via mXylylene
SMILES: CCC[C@H](NC(C)=O)C(=O)N[C@H]1CSCc2cccc(c2)CSC[C@@H](C(N)=O)NC(=O)CN(C)C(=O)[C@H](Cc2ccc(F)cc2)N(C)C(=O)[C@H](Cc2ccc(O)cc2)NC(=O)[C@H](Cc2c[nH]c3ncccc23)NC(=O)[C@@H](c2ccccc2)NC(=O)[C@H](C)N(C)C(=O)[C@H](C)NC(=O)[C@H](CCCCN)NC(=O)[C@H](C(C)(C)C)NC(=O)[C@H](Cc2ccc(O)cc2)NC1=O

Target: GMPPNP-loaded H-Ras or GTP-loaded K-Ras
Assay: FP competition, displacement of probe R4007 from Ras

Question: With Ac-[Nva]SY[Tle]A[DAPTZAC2][NMeA][ξPhg][Trp(7-aza)]Y[NMePhe(4-F)][Sar]S-NH2 (also: places Phg, 7-azaTrp, NMe-4-F-Phe, Sar at 9, 10, 12, 13) [R4151] as the binder, how does the IC50 read?
Answer: Its IC50 is 12.2 µM.

Question: Which IC50 does the source give for B1 here?
Answer: Its IC50 is 28.3 µM.

Question: B2 was tested. Which IC50 did it give?
Answer: The IC50 was 36.5 µM.

Question: Which IC50 does the source give for {Alexa Fluor 594}-[Nva]CY[Nva][Phg][NMePhe(4-F)]TP[Trp(7-aza)]C[Trp(7-aza)]EE-NH2 (linker 2-10 via m‑xylylene) [R4154] here?
Answer: Its IC50 is 37.4 µM.
